Results from patent US20260374861 (published 2026).

Experiments:
[1] = molecular target: huILT4 protein (human); assay: competition, FACS, blocking HLA-G
[2] = molecular target: human ILT4-ECD (human); assay: ELISA
[3] = molecular target: human ILT4 (cell surface) (human); assay: FACS
[4] = molecular target: monkey ILT4-ECD (cynomolgus); assay: ELISA
[5] = molecular target: huILT4 protein (human); assay: competition, ELISA, blocking SEMA4A

Chain of huILT4 protein (human) (chain, as listed by the source): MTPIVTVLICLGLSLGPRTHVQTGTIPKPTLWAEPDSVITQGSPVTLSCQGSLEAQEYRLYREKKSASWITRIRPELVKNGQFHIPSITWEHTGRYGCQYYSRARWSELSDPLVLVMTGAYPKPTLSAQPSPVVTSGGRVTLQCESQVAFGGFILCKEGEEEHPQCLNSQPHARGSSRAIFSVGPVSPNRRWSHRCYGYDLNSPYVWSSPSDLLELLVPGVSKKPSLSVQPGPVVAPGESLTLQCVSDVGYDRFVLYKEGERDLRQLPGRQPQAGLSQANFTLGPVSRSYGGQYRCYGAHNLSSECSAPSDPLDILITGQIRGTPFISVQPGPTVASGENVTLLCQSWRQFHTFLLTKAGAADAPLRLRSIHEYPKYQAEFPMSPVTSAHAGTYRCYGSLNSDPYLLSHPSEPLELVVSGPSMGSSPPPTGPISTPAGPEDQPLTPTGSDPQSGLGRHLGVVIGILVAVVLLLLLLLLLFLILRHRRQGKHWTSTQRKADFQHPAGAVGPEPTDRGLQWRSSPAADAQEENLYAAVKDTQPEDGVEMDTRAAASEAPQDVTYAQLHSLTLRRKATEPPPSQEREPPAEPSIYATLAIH
Chain of monkey ILT4-ECD (cynomolgus) (chain, as listed by the source): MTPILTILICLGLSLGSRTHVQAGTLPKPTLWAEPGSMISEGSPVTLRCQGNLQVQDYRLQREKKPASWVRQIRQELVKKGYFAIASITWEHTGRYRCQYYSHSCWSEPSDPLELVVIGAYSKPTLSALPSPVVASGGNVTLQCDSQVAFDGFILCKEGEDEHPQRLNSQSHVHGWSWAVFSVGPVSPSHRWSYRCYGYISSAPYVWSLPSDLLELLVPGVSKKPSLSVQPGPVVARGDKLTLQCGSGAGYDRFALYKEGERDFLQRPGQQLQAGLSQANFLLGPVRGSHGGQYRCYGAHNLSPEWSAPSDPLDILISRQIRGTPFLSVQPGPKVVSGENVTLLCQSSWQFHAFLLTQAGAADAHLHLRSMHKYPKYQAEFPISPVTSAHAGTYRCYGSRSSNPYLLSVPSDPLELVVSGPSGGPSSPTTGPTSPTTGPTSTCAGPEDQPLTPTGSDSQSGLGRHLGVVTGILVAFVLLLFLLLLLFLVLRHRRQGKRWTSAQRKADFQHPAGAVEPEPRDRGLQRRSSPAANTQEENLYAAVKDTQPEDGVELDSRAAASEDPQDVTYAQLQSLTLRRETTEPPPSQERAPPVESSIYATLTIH
Chain of human ILT4-ECD (human) (chain, as listed by the source): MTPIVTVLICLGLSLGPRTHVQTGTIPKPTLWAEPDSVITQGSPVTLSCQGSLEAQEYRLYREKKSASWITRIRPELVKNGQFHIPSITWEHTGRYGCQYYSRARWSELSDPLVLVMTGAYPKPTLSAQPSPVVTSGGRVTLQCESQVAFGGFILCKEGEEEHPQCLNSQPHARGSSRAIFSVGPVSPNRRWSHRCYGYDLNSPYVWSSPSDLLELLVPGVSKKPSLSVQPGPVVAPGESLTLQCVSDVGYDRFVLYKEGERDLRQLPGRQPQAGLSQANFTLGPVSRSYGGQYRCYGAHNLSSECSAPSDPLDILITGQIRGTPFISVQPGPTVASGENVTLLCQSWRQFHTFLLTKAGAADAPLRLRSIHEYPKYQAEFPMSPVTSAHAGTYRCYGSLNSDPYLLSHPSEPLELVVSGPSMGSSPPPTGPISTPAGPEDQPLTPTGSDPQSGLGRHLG

IC50 [1] | EC50 [2] | EC50 [3] | EC50 [4] | IC50 [5] | Binder
 | 0.012 nM |  | 0.047 nM |  | PR302934 (antibody, V domains shown) VH: QVQLQQWGAGLLKPSETLSLTCAVYGGSFSGYYWSWIRQTLGKGLEWIGEVSHSGGTNYNPSLKSRVTISVDTSKNQFSLKLSSVTAADTAVYYCARSPYYGDYMYVFDIWGQGTMVTVSS VL: not shown
8.86 nM | 0.023 nM |  |  | 47.9 nM | PR302949 (antibody, V domains shown) VH: EVQLLESGGGLVQPGGSLRLSCAASGFTFSSYAMSWVRQAPGKGLEWVSSISGSDFSTYYADSVKGRFTISRDTSKNTLYLQMNSLRAEDTAVYYCAKDRQWLVSSFDFWGQGALVTVSS VL: DIQMTQSPSSLSASVGDRVTITCQASQDISNYLNWYQQKPGKAPKLLIYDASNLETGVPSRFSGSGSGTDFTFTISSLQPEDIATYYCQQYDNLITFGQGTRLEIK
 | 0.015 nM | 1.88 nM |  | 48.1 nM | PR302282 (antibody, V domains shown) VH: QVQLVESGGTVVQSGRSLRLSCAASGFTFSSYGMHWVRQAPGKGLEWVAGMWYDGNYKYYADSVKGRFTISRDNSKNTLSLQMNSLRAEDTAVYYCARDSPIGVFDYWGQGTLVTVSS VL: DIQMTQSPSSLSASVGDRVTITCQASQDISNYLNWYQQKPGKAPKLLIYDASNLETGVPSRFSGSGSGTDFTFTISSLQPEDIATYYCQQYDNLITFGQGTRLEIK
 | 0.029 nM |  |  |  | PR302702 (antibody, V domains shown) VH: EVQLLESGGGLVQPGGSLRLSCAASGFTFSTYAMTWVRQAPGKGLEWVSSISGSDFNTYYADSVKGRFTISRDISKNTLYLQMNSLRAEDTAVYYCAKDQEWLVRSFHHWGQGTLVTVSS VL: DIQMTQFPSSLFAFVGDRVTITCQASQDISNYLNWYQQKAGKAPKLLINDASNLETGVPSRFSGSGFGTDFTFTISSLQPEDFATYYCQQYENLPTFGGGTKVEIK
8.6 nM | 0.015 nM |  |  | 52.9 nM | PR302951 (antibody, V domains shown) VH: EVQLLESGGGLVQPGGSLRLSCAASRFTFSTYAMSWVRQAPGKGLEWVSSISGSGFNTYYADSVKGRFTISSDSSKNTLYLQMNSLRAEDTAVYYCAKDRQWLVSSFDYWGQGTLVTVSS VL: DIQMTQSPSSLSASVGDRVTITCQASQDISNYLNWYQQKPGKAPKLLIYDASNLETGVPSRFSGSGSGTDFTFTISSLQPEDIATYYCQQYDNLITFGQGTRLEIK
9.34 nM | 0.056 nM |  |  | 65 nM | PR302950 (antibody, V domains shown) VH: QVQLQESGPGLVKPSGTLSLTCAVSGGSISSSNWWSWVRQPPGKGLEWIGEVYHSGSTNYNPSLKSRVTISVDKSQNQFSLKLTSVTAADTAVYYCARVTGNKDYYYYDLDVWGQGTTVTVSS VL: not shown
10.6 nM | 0.025 nM |  |  | 61.5 nM | PR302927 (antibody, V domains shown) VH: EVQLLESGGGLVQPGGSLRLSCAASGFTFSSYAMSWVRQAPGKGLEWVSTINHIGDSTYYADSVKGRFTISRDNSKNTLYLQMNSLRAEDTAVYYCAKDQWFGVFDYWGQGTLVTVSS VL: not shown
5.33 nM | 0.021 nM | 0.345 nM |  | 40.9 nM | PR303413 (antibody, V domains shown) VH: QVQLVESGGGVVQPGRSLRLSCAASGFTFSSYGMHWVRQAPGKGLGWVAGIWYAGSNEYYVDSVKGRFIISRDNSKNTLYLQMNSLRAEDTAVYYCARDQGWGTMDAWGQGASVTVSS VL: not shown

The remaining lines, values behind:

Binder | IC50 [1] | EC50 [2] | EC50 [3] | EC50 [4] | IC50 [5]
PR302239 (antibody, V domains shown) VH: QVQLQESGPGLVKPSETLSLTCTVSGDSISSYYWSWIRQPPGKGLEWIGFIYYSGSTNYNPSLKSRVTISVDTSKNQFSLKLTSVTAADTAVYYCANQLWFGESPFDYWGQGTLVTVSS VL: not shown | 6.49 nM |  |  |  | 
PR302239-1 (antibody, V domains shown) VH: QVQLQESGPGLVKPSETLSLTCTVSGDSISSYYWSWIRQPPGKGLEWIGFIYYSGSTNYNPSLKSRVTISVDTSKNQFSLKLTSVTAADTAVYYCANQLWFGESPFDYWGQGTLVTVSS VL: not shown |  | 0.036 nM | 0.931 nM |  | 
PR302264 (antibody, V domains shown) VH: QVQLQQWGAGLLKPSETLSLTCAVYGGSLSGYYWSWIRQPPGKGLEWIGEINHSGGTNYNPSLKSRVTISVPTSKNQFSLKLTSVTAADTAVYYCARGQQQLDWYFDLWGRGTLVTVSS VL: EIVMTQSPATLSVSPGERATLSCRASQNIYSHLVWYQQKPGQAPRLLIYGASTRATGIPARFSGSGSGTEFTLTITSLQSEDFTVYYCQQYNDWPPITFGQGTRLEIR |  | 0.026 nM |  | 0.935 nM | 
PR301366 (antibody, V domains shown) VH: EVQLLESGGGLVQPGGSLRLSCAASGFTFSNYAMNWVRQAPGKGLEWVSVISVSGGSTYYADSVKGRFTISRDNSKNTLYLQMNSLRAEDTAVYYCAKDYYYDSGSYYDSFFDYWGQGTLVTVSS VL: not shown | 3.99 nM | 0.014 nM | 0.362 nM | 0.401 nM | 34.8 nM
PR302261 (antibody, V domains shown) VH: EVQLLESGGGLVQSGGSLRLSCAASGFTFSSYAMSWVRQAPGKGLGWVSTISGSGGSAYYADSVKGRFTVSRDNSKKTLYLQMNSLRAEDTAVYFCAILSGDDAFDIWGQGTMVTVSS VL: DVVMTQSPLSLPVTPGEPASISCRSSQSLLRGNGYNYLDWYLQKPGQSPQLLIYLGSNRASGVPDRFSGSGSGTDFTLKISRVEAEDVGIFYCMQALQSPLTFGGGTKVEIK |  | 0.032 nM |  | 0.008 nM | 
PR302259-1 (antibody, V domains shown) VH: EVQLLESGGGLVQPGGSLRLSCAVSGFTFSSYAMSWVRQAPGKGLEWVSAISDNAGSTYYADSVKGRFTISRDNSKNTLHLQMNSLRAEDTAVYSCAKERQWLVLGVMDAWGQGASVTVSS VL: not shown |  | 0.012 nM | 0.262 nM |  | 
PR302259 (antibody, V domains shown) VH: EVQLLESGGGLVQPGGSLRLSCAVSGFTFSSYAMSWVRQAPGKGLEWVSAISDNAGSTYYADSVKGRFTISRDNSKNTLHLQMNSLRAEDTAVYSCAKERQWLVLGVMDAWGQGASVTVSS VL: not shown | 3.4 nM |  |  |  | 34.1 nM
